Assay results reported in US20040254341.

Target: APP695 with C-terminal dilysine and the mutation KM-DA594-597 to SYEA594-597, expressed in HEK 293 derivative cells, P05067
Sequence (P05067 whole entry, looked up, change not shown, tested part not stated): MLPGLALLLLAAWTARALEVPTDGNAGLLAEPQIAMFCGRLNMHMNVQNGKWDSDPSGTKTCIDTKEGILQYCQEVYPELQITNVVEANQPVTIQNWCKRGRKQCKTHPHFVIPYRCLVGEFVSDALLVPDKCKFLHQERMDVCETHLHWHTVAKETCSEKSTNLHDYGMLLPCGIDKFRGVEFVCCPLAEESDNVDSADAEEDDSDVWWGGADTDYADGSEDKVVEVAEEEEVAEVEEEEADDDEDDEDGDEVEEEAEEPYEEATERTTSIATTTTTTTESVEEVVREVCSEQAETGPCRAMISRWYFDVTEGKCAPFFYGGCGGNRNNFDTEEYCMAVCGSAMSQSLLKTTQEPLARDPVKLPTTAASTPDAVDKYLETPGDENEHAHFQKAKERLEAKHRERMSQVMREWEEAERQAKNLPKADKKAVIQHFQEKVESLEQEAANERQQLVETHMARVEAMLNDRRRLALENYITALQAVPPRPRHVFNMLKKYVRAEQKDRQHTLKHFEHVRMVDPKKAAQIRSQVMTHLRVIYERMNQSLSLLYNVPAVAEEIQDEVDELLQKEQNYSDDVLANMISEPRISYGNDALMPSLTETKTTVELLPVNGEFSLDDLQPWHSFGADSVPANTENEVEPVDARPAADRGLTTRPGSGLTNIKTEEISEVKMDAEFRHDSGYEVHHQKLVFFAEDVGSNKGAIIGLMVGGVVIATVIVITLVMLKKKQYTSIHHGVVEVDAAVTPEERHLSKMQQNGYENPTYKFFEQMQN

B1: Hu-Asp2 expressed in a stable HEK-293 derivative cell line that expresses higher levels of Hu-Asp2 (protein)
chain: ETDEEPEEPGRRGSFVEMVDNLRGKSGQGYYVEMTVGSPPQTLNILVDTGSSNFAVGAAPHPFLHRYYQRQLSSTYRDLRKGVYVPYTQGKWEGELGTDLVSIPHGPNVTVRANIAAITESDKFFINGSNWEGILGLAYAEIARPDDSLEPFFDSLVKQTHVPNLFSLHLCGAGFPLNQSEVLASVGGSMIIGGIDHSLYTGSLWYTPIRREWYYEVIIVRVEINGQDLKMDCKEYNYDKSIVDSGTTNLRLPKKVFEAAVKSIKAASSTEKFPDGFWLGEQLVCWQAGTTPWNIFPVISLYLMGEVTNQSFRITILPQQYLRPVEDVATSQDDCYKFAISQSSTGTVMGAVIMEGFYVVFDRARKRIGFAVSACHVHDEFRTAAVEGPFVTLDMEDCGYNIPQTDESTLMTIAYVMAAICALFMLPLCLMVCQWRCLRCLRQQHDDFADDISLLK
Which “β-secretase cleavage product CTF-99, Western blot with antibody C8” value does the source give for B1 here?
The value was “both mutant APP variants were proficiently cleaved by Asp2”.
